Assay [1] deals with Taxol-stabilized microtubules polymerized from purified porcine tubulin (porcine) (UniProt P02550). Briefly: cross-linking.
The target is the same in assay [2]. The assay can be described thus: co-sedimentation.

“MBP-MEI-2 1–90 K77A-K78A (from UniProt O44740 1-90) (domain or fragment)” returned an MEI-2*tubulin crosslinked band, percent of the WT fragment in assay [1] of 84%.

As for “MBP-MEI-2 1–90 K77D-K78D (from UniProt O44740 1-90) (domain or fragment)”, the MEI-2*tubulin crosslinked band, percent of the WT fragment in assay [1] was found to be 87%.

By Kd is commonly meant the concentration at which binding is half-saturated. The low end stands for higher affinity, the high end for lower affinity. In assay [2], “MBP-MEI-2 full length 6KA (K8A-K9A K77A-K78A K274A-K275A) (from UniProt O44740 1-280) (natural protein)” returned a Kd of 3.68 µM. Further, the MEI-2*tubulin crosslinked band, percent of WT in assay [1] was 53%.

As to “MBP-MEI-2 full length 6KD (K8D-K9D K77D-K78D K274D-K275D) (from UniProt O44740 1-280) (natural protein)”, the dissociation constant Kd in assay [2] was 6.15 µM. The substance also came in with an MEI-2*tubulin crosslinked band, percent of WT in assay [1] of 6%.

The values above are taken from PMC10853069.
